Values quoted from earlier work as cited in article PMC11809415, “Structure of the F-tractin–F-actin complex” (The Journal of Cell Biology, 2025).
Where “and” joins values, the source holds several entries; their conditions need not be identical. Identical values can stand only once.

Target: F-actin (Oryctolagus cuniculus) (UniProt P68135)

Kd: 14.9 µM and 5.8 µM
Substance: Lifeact (from UniProt Q08641)
